According to IntAct's records for PubMed 19017275:

B1: Phosphothreonine lyase OspF (Shigella flexneri), Q8VSP9 (parent)
chain: MPIKKPCLKLNLDSLNVVRSEIPQMLSANERLKNNFNILYNQIRQYPAYYFKVASNVPTYSDICQSFSVMYQGFQIVNHSGDVFIHACRENPQSKGDFVGDKFHISIAREQVPLAFQILSGLLFSEDSPIDKWKITDMNRVSQQSRVGIGAQFTLYVKSDQECSQYSALLLHKIRQFIMCLESNLLRSKIAPGEYPASDVRPEDWKYVSYRNELRSDRDGSERQEQMLREEPFYRLMIE
partner: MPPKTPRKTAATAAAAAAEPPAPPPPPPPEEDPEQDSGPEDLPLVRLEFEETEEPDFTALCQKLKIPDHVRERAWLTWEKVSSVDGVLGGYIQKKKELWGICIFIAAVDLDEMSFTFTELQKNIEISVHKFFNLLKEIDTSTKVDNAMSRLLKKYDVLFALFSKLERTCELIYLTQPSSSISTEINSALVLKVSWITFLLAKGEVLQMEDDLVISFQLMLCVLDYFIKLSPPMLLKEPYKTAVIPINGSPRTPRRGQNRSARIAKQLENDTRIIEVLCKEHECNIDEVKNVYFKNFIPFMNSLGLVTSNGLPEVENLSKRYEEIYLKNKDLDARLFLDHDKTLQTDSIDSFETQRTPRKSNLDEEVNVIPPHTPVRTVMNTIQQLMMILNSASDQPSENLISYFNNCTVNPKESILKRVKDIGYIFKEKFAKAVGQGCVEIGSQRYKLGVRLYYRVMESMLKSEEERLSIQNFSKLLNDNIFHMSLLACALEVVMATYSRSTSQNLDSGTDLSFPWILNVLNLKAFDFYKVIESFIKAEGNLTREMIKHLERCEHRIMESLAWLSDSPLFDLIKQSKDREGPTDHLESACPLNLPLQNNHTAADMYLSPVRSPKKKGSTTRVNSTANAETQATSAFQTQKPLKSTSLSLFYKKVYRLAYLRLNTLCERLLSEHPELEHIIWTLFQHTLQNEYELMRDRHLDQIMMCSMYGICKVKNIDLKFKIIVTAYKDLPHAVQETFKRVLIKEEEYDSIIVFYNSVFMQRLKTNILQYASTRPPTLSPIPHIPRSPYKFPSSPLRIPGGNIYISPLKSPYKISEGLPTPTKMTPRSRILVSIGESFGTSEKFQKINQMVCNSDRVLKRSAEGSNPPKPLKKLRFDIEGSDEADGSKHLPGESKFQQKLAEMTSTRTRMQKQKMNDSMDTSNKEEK

Variants of: B1
Settings: with rb_human RB1, P06400

Variant | effect of a mutation on the interaction
I178R;C180G;E182A | decreasing interaction strength
